# Assay results as given in PMC10726252, “Structure and biochemical characterization of L-2-hydroxyglutarate dehydrogenase and its role in the pathogenesis of L-2-hydroxyglutaric aciduria” (The Journal of Biological Chemistry, 2023).
# Positions count from the first letter of the chain named. Names and notes keep the numbering of the source.
# B1: Drosophila melanogaster L-2-hydroxyglutarate dehydrogenase (dmL2HGDH), residues 41-455 (enzyme, UniProt Q9VJ28 41-455, looked up)
# chain: GDYDLVVVGGGIVGAASAREIVLRHPSLKVAVLEKECKLAKHQSGHNSGVIHAGIYYKPGTLKARLCVEGMHLAYAYLDEKKIPYKKTGKLIVATDEKEVKLLKDLEKRGIANNVPDLRMIEGSEIQEIEPYCQGVMALHSPHTGIVDWGLVTEHYGQDFKQCGGDIYLDFNVSKFTETKEGTDYPVTIHGAKPGQTVRTKNVLTCGGLQSDLLAEKTGCPRDPRIVPFRGEYLLLTKEKQHMVKGNIYPVPDPRFPFLGVHFTPRMDGSIWLGPNAVLALKREGYTWGDINLFELFDALRYPGFVKMASKYIGFGLSEMSKSWFINLQIKALQKYIPDITEYDIQRGPAGVRAQAMDLDGNLVDDFVFDRGQGSGALAKRVLHCRNAPSPGATSSLAIAKMIADKIENEFSIGK
# notes: L-2-hydroxyglutarate dehydrogenase, Drosophila melanogaster, residues 41-455; the N-terminal 1 to 40 residues (mitochondrial-targeting peptide) removed; Gene synthesized by Sangon Biotech; also called WT dmL2HGDH; truncated dmL2HGDH; source: E. coli BL21 Codon-Plus (DE3)-RIPL, purified (Ni-NTA, tag removal by ULP1, Superdex 200); not shown: His6, N-terminal, cleaved; SUMO, N-terminal, cleaved
# B2: dmL2HGDH (Drosophila melanogaster; R393A) (protein)
# chain: B1 chain with R353A
# notes: residues 41-455, mitochondrial-targeting peptide (1-40) removed; N-terminal His6-SUMO tag cleaved by ULP1; E. coli; tetramer about 178 kDa
# B3: dmL2HGDH (Drosophila melanogaster; S88A) (protein)
# chain: B1 chain with S48A
# notes: as for B2
# Experiments:
# [1] = molecular target: T1, dmL2HGDH (Drosophila melanogaster, UniProt Q9VJ28); assay: inhibition of L-2-HG oxidation, DCIP reduction at […] nm; type: biochemical; details: read-out: % inhibition at 10 mM
# T1 construct: gene L2HGDH; residues 41-455, mitochondrial-targeting peptide (1-40) removed; N-terminal His6-SUMO tag cleaved by ULP1; E. coli; tetramer about 178 kDa
# [2] = molecular target: T1, dmL2HGDH; assay: crystal structure, […] Å; absorbance at […] nm; type: binding; details: FAD co-purified from E. coli expression
# [3] = molecular target: dmL2HGDH with Cys77 substituted by alanine (Drosophila melanogaster) (UniProt Q9VJ28); assay: not stated; tetrameric state of the Cys77 to alanine mutant in solution (Fig. S11E)
# [4] = substrate: O=C(O)CC[C@H](O)C(=O)O; assay: purified protein; type: biochemical, Drosophila melanogaster; details: 200 μM phenazine methosulfate, 100 μM DCIP, 50 mM Hepes pH 7.5, about 25 °C, corrected for FAD occupancy
# [5] = molecular target: the molecule itself; assay: SEC-MALS; protein solution 2 mg/ml on Superdex 200 10/300; 20 mM Hepes pH 7.4, 200 mM NaCl; 0.4 ml/min
Molecule,Km [4],Vmax [4],kcat [4],kcat/Km [4],also measured
O=C(O)C[C@H](O)C(=O)O [L-MAL],,,,,inhibition at 10000 µM [1]: < 30%
Cc1cc2nc3c(=O)[nH]c(=O)nc-3n(C[C@H](O)[C@H](O)[C@H](O)COP(=O)(O)OP(=O)(O)OC[C@H]3O[C@@H](n4cnc5c(N)ncnc54)[C@H](O)[C@@H]3O)c2cc1C [FAD],,,,,"crystal structure, 2.85 Å; absorbance at 450 nm [2]: In each monomer, there are an FAD bound at the active site"
dmL2HGDH with Cys77 substituted by alanine (from UniProt Q9VJ28 41-455) (enzyme),,,,,stoichiometry N [3]: 4
B1,130 ± 8 µM,10.2 µmol/min/mg,7.76 ± 0.11 s⁻¹,59700 M⁻¹ s⁻¹,stoichiometry N [5]: 4
B2,240 ± 30 µM,5.68 µmol/min/mg,4.34 ± 0.15 s⁻¹,18100 M⁻¹ s⁻¹,
B3,560 ± 150 µM,1.56 µmol/min/mg,1.19 ± 0.13 s⁻¹,2130 M⁻¹ s⁻¹,
